Results: patent US20210388110A1 (published 2021)

B1: TR01H075-E22Hh/none-Hi-Kn010G3/L0000-k0 (antibody, human IgG1, kappa, L234A L235A, N297A)
heavy: QVQLVESGGGLVQPGRSLRLSCAASGFTFSNAWMHWVRQAPGKGLEWVAQIKDKSQNYATYYAESVKGRFTISRDDSKNSLYLQMNSLKTEDTAVYYCRYVHYAASYGVDYWGQGTTVTVSSASTKGPSVFPLAPSSKSTSGGTAALGCLVKDYFPEPVTVSWNSGALTSGVHTFPAVLQSSGLYSLSSVVTVPSSSLGTQTYICNVNHKPSNTKVDKKVEPKSCDKTHTCPPCPAPEAAGGPSVFLFPPKPKDTLMISRTPEVTCVVVDVSHEDPEVKFNWYVDGVEVHNAKTKPREEQYASTYRVVSVLTVLHQDWLNGKEYKCKVSNKALPAPIEKTISKAKGQPREPQVYTLPPSRCELTKNQVSLSCAVKGFYPSDIAVEWESNGQPENNYKTTPPVLDSDGSFFLVSKLTVDKSRWQQGNVFSCSVMHEALHNHYTQKSLSLSPDYKDDDDK
chain: EPKSSDKTHTCPPCPAPELLGGPSVFLFPPKPKDTLMISRTPEVTCVVVDVSHEDPEVKFNWYVDGVEVHNAKTKPREEQYNSTYRVVSVLTVLHQDWLNGKEYKCKVSNKALPAPIEKTISKAKGQPREPQVCTLPPSRDELTKNQVSLWCLVKGFYPSDIAVEWESNGQPENNYKTTPPVLDSDGSFFLYSKLTVDKSRWQQGNVFSCSVMHEALHNRYTQKSLSLSP
light: DIVMTQSPLSLPVTPGEPASISCRSSQSLVHSNRNTYLHWYQQKPGQAPRLLIYKVSNRFSGVPDRFSGSGSGTDFTLKISRVEAEDVGVYYCGQGTQVPYTFGQGTKLEIKRTVAAPSVFIFPPSDEQLKSGTASVVCLLNNFYPREAKVQWKVDNALQSGNSQESVTEQDSKDSTYSLSSTLTLSKADYEKHKVYACEVTHQGLSSPVTKSFNRGEC
notes: one-arm antibody (single Fab) with Fab-less hinge-Fc chain Hi-Kn010G3
B2: TR01H082-E22Hh/none-Hi-Kn010G3/L0222-k0 (antibody, human IgG1, kappa, L234A L235A, N297A)
heavy: QVQLVESGGGLVQPGRSLRLSCAASGFTFSNAWMHWVRQAPGKGLEWVAQIKDKSQNYATYYAESVKGRFTISRDDSKNSLYLQMNSLKTEDTAVYYCRYVHYAAGYGVDAWGQGTTVTVSSASTKGPSVFPLAPSSKSTSGGTAALGCLVKDYFPEPVTVSWNSGALTSGVHTFPAVLQSSGLYSLSSVVTVPSSSLGTQTYICNVNHKPSNTKVDKKVEPKSCDKTHTCPPCPAPEAAGGPSVFLFPPKPKDTLMISRTPEVTCVVVDVSHEDPEVKFNWYVDGVEVHNAKTKPREEQYASTYRVVSVLTVLHQDWLNGKEYKCKVSNKALPAPIEKTISKAKGQPREPQVYTLPPSRCELTKNQVSLSCAVKGFYPSDIAVEWESNGQPENNYKTTPPVLDSDGSFFLVSKLTVDKSRWQQGNVFSCSVMHEALHNHYTQKSLSLSPDYKDDDDK
chain: EPKSSDKTHTCPPCPAPELLGGPSVFLFPPKPKDTLMISRTPEVTCVVVDVSHEDPEVKFNWYVDGVEVHNAKTKPREEQYNSTYRVVSVLTVLHQDWLNGKEYKCKVSNKALPAPIEKTISKAKGQPREPQVCTLPPSRDELTKNQVSLWCLVKGFYPSDIAVEWESNGQPENNYKTTPPVLDSDGSFFLYSKLTVDKSRWQQGNVFSCSVMHEALHNRYTQKSLSLSP
light: DIVMTQSPLSLPVTPGEPASISCRSSQSPVHSNRNTYIQWYQQKPGQAPRLLIYKVSNRFSGVPDRFSGSGSGTDFTLKISRVEAEDVGVYYCYQGTQVPYTFGQGTKLEIKRTVAAPSVFIFPPSDEQLKSGTASVVCLLNNFYPREAKVQWKVDNALQSGNSQESVTEQDSKDSTYSLSSTLTLSKADYEKHKVYACEVTHQGLSSPVTKSFNRGEC
notes: as for B1
B3: TR01H082-E22Hh/none-Hi-Kn010G3/L0268-k0 (antibody, human IgG1, kappa, L234A L235A, N297A)
heavy: QVQLVESGGGLVQPGRSLRLSCAASGFTFSNAWMHWVRQAPGKGLEWVAQIKDKSQNYATYYAESVKGRFTISRDDSKNSLYLQMNSLKTEDTAVYYCRYVHYAAGYGVDAWGQGTTVTVSSASTKGPSVFPLAPSSKSTSGGTAALGCLVKDYFPEPVTVSWNSGALTSGVHTFPAVLQSSGLYSLSSVVTVPSSSLGTQTYICNVNHKPSNTKVDKKVEPKSCDKTHTCPPCPAPEAAGGPSVFLFPPKPKDTLMISRTPEVTCVVVDVSHEDPEVKFNWYVDGVEVHNAKTKPREEQYASTYRVVSVLTVLHQDWLNGKEYKCKVSNKALPAPIEKTISKAKGQPREPQVYTLPPSRCELTKNQVSLSCAVKGFYPSDIAVEWESNGQPENNYKTTPPVLDSDGSFFLVSKLTVDKSRWQQGNVFSCSVMHEALHNHYTQKSLSLSPDYKDDDDK
chain: EPKSSDKTHTCPPCPAPELLGGPSVFLFPPKPKDTLMISRTPEVTCVVVDVSHEDPEVKFNWYVDGVEVHNAKTKPREEQYNSTYRVVSVLTVLHQDWLNGKEYKCKVSNKALPAPIEKTISKAKGQPREPQVCTLPPSRDELTKNQVSLWCLVKGFYPSDIAVEWESNGQPENNYKTTPPVLDSDGSFFLYSKLTVDKSRWQQGNVFSCSVMHEALHNRYTQKSLSLSP
light: DIVMTQSPLSLPVTPGEPASISCRSSQSPVHSNRNTYIQWYQQKPGQAPRLLIYKVSNRFSGVPDRFSGSGSGTDFTLKISRVEAEDVGVYYCVQGTQVPYTFGQGTKLEIKRTVAAPSVFIFPPSDEQLKSGTASVVCLLNNFYPREAKVQWKVDNALQSGNSQESVTEQDSKDSTYSLSSTLTLSKADYEKHKVYACEVTHQGLSSPVTKSFNRGEC
notes: as for B1
B4: TR01H082-E22Hh/none-Hi-Kn010G3/L0270-k0 (antibody, human IgG1, kappa, L234A L235A, N297A)
heavy: QVQLVESGGGLVQPGRSLRLSCAASGFTFSNAWMHWVRQAPGKGLEWVAQIKDKSQNYATYYAESVKGRFTISRDDSKNSLYLQMNSLKTEDTAVYYCRYVHYAAGYGVDAWGQGTTVTVSSASTKGPSVFPLAPSSKSTSGGTAALGCLVKDYFPEPVTVSWNSGALTSGVHTFPAVLQSSGLYSLSSVVTVPSSSLGTQTYICNVNHKPSNTKVDKKVEPKSCDKTHTCPPCPAPEAAGGPSVFLFPPKPKDTLMISRTPEVTCVVVDVSHEDPEVKFNWYVDGVEVHNAKTKPREEQYASTYRVVSVLTVLHQDWLNGKEYKCKVSNKALPAPIEKTISKAKGQPREPQVYTLPPSRCELTKNQVSLSCAVKGFYPSDIAVEWESNGQPENNYKTTPPVLDSDGSFFLVSKLTVDKSRWQQGNVFSCSVMHEALHNHYTQKSLSLSPDYKDDDDK
chain: EPKSSDKTHTCPPCPAPELLGGPSVFLFPPKPKDTLMISRTPEVTCVVVDVSHEDPEVKFNWYVDGVEVHNAKTKPREEQYNSTYRVVSVLTVLHQDWLNGKEYKCKVSNKALPAPIEKTISKAKGQPREPQVCTLPPSRDELTKNQVSLWCLVKGFYPSDIAVEWESNGQPENNYKTTPPVLDSDGSFFLYSKLTVDKSRWQQGNVFSCSVMHEALHNRYTQKSLSLSP
light: DIVMTQSPLSLPVTPGEPASISCRSSQSLVHSNRQTYLHWYQQKPGQAPRLLIYKVSNRFSGVPDRFSGSGSGTDFTLKISRVEAEDVGVYYCGQGTQVPYTFGQGTKLEIKRTVAAPSVFIFPPSDEQLKSGTASVVCLLNNFYPREAKVQWKVDNALQSGNSQESVTEQDSKDSTYSLSSTLTLSKADYEKHKVYACEVTHQGLSSPVTKSFNRGEC
notes: as for B1
B5: TR01H082-E22Hh/none-Hi-Kn010G3/L0271-k0 (antibody, human IgG1, kappa, L234A L235A, N297A)
heavy: QVQLVESGGGLVQPGRSLRLSCAASGFTFSNAWMHWVRQAPGKGLEWVAQIKDKSQNYATYYAESVKGRFTISRDDSKNSLYLQMNSLKTEDTAVYYCRYVHYAAGYGVDAWGQGTTVTVSSASTKGPSVFPLAPSSKSTSGGTAALGCLVKDYFPEPVTVSWNSGALTSGVHTFPAVLQSSGLYSLSSVVTVPSSSLGTQTYICNVNHKPSNTKVDKKVEPKSCDKTHTCPPCPAPEAAGGPSVFLFPPKPKDTLMISRTPEVTCVVVDVSHEDPEVKFNWYVDGVEVHNAKTKPREEQYASTYRVVSVLTVLHQDWLNGKEYKCKVSNKALPAPIEKTISKAKGQPREPQVYTLPPSRCELTKNQVSLSCAVKGFYPSDIAVEWESNGQPENNYKTTPPVLDSDGSFFLVSKLTVDKSRWQQGNVFSCSVMHEALHNHYTQKSLSLSPDYKDDDDK
chain: EPKSSDKTHTCPPCPAPELLGGPSVFLFPPKPKDTLMISRTPEVTCVVVDVSHEDPEVKFNWYVDGVEVHNAKTKPREEQYNSTYRVVSVLTVLHQDWLNGKEYKCKVSNKALPAPIEKTISKAKGQPREPQVCTLPPSRDELTKNQVSLWCLVKGFYPSDIAVEWESNGQPENNYKTTPPVLDSDGSFFLYSKLTVDKSRWQQGNVFSCSVMHEALHNRYTQKSLSLSP
light: DIVMTQSPLSLPVTPGEPASISCRSSQPPVHSNRQTYLHWYQQKPGQAPRLLIYKVSNRFSGVPDRFSGSGSGTDFTLKISRVEAEDVGVYYCGQGTQVPYTFGQGTKLEIKRTVAAPSVFIFPPSDEQLKSGTASVVCLLNNFYPREAKVQWKVDNALQSGNSQESVTEQDSKDSTYSLSSTLTLSKADYEKHKVYACEVTHQGLSSPVTKSFNRGEC
notes: as for B1

What follows are binders tested against T1, soluble human CD3ε chain (human, UniProt P07766 23-126, limits assumed) (assay: SPR (Biacore), soluble human CD3ε chain).
T1 construct: also called human CD3 epsilon chain
T1 sequence (P07766 23-126 limits assumed): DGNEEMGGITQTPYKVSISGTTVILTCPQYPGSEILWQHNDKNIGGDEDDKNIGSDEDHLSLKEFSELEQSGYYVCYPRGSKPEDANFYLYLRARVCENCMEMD

Binder	Kd [nM]
B1	98.8
B2	101
B3	136
B4	74.2
B5	68.2
